Test results from patent US20100267638A1, “EXOSITE-DIRECTED THROMBIN INHIBITORS” (CLEVELAND STATE UNIVERSITY, priority 2003, published 2010).
No end group written: not given here. *: point of attachment. SO3 = O=S(=O)(O)*

Legend:
prothrombinase = biological target: T1, prothrombinase (Homo sapiens, UniProt P00734); test: Assay measuring thrombin formation (prothrombinase inhibition by peptides, DAPA fluorescence); type: biochemical
T1 construct: purchased Haematologic Technologies Inc. (Essex Junction, Vt.)
Description: Assay measuring thrombin formation. The formation of thrombin was analyzed using the fluorescent thrombin inhibitor DAPA as described using a Perkin Elmer LS-50B Luminescence Spectrometer (Perkin-Elmer LLC, Norwalk Conn.) with λex=280 nm, λem=550 nm and a 500 nm long pass filter in the emission beam (Schott KV-500). […] In all cases peptides were preincubated with factor tor Va prior to the assay as described in the legend to the figures. The final concentration of factor tor Va in the mixture was 4 nM with factor Xa at 10 nM, prothrombin at 350 nM, DAPA at 700 nM, in the presence of PCPS vesicles (10 μM). The initial rate of thrombin formation (nM IIa·min^−1) was calculated as described during the initial 5-10 sec of the reaction. To verify if the peptides have any effect on the active-site of thrombin, control experiments were performed as follows: a given peptide (at 100 μM) was incubated in the assay buffer containing DAPA (700 nM); the base line was monitored for 30 sec; thrombin (350 nM) was then added to the mixture and the fluorescent intensity resulting from the complexation of DAPA with the active site of thrombin was monitored for 60 sec. The slope of the reaction measuring thrombin formation in the presence of a given peptide during the first 5 sec was calculated and compared to the slope of a reaction obtained in the absence of peptide. It is noteworthy that under the conditions employed the thrombin-DAPA interaction occurred fast and the calculated slope of the reaction was sensitive to all parameters used. […] All experiments were performed in triplicates or as indicated. The concentration of each peptide given in the figures and figure legends is their final concentration in the assay. […] In some cases the data were also analyzed and plotted using DeltaGraph (DeltaPoint, Monterey, Calif.).
Specifically, peptides were incubated with factor tor Va as described herein at a fixed concentration (100 μM). The percent of factor tor Va cofactor activity was calculated by comparing the activity of prothrombinase in the presence of a given peptide to the activity of prothrombinase determined in a control reaction in the absence of peptide and in the presence of factor Xa. […] The control peptide represents a pentadecapeptide from the middle portion of factor tor Va heavy chain (P15H) (SEQ ID NO. 22). […] All other peptides from region 680-709 had no significant effect on prothrombinase activity.
HC3 represents amino acid sequence 690-699 of factor tor Va heavy chain; HC4 contains the sequence 695-704 of human factor tor Va heavy chain; P15H represents amino acid sequence 337-351 from the middle portion of human factor tor Va heavy chain. […] The concentration of each peptide given on the x axis represents its final concentration in the prothrombinase mixture. […] Thus, both peptides show similar inhibitory potential.

intrinsic tenase = intrinsic tenase (Homo sapiens, UniProt P00451+P00740); test: Inhibition of intrinsic tenase; type: biochemical; conditions: FIG. 11A
Excerpt: FIG. 11A illustrates inhibition of intrinsic tenase by the double sulfonated peptide DYDYQ (1, 2) (SEQ ID NO. 9). […] As is shown in FIG. 11A, as the concentration of DYDYQ (1, 2) is increased, the reduction in activity is dramatic.
FIG. 11B and its insert panel illustrate the effect of increasing concentration of the peptide DYDYQ (1, 2) (SEQ ID NO. 9) upon the reaction kinetics of intrinsic tenase. Specifically, this figure illustrates the kinetics of inhibition of intrinsic tenase in the presence of the double sulfonated peptide DYDYQ (1, 2). In FIG. 11B, the data are plotted as Vo (initial velocity in arbitrary units) as a function of increasing factor X concentration in the presence of increasing concentration of DYDYQ (1, 2). The concentrations of DYDYDQ (1, 2), in addition with factor VIIIa, are 10 nM (filled triangles), 25 nM (filled diamonds), and 50 nM (filled circles). Control curves of factors VIIIa and IXa (filled squares) and factor IXa (inverted triangles) are also noted. The insert panel of FIG. 11B is presented for greater clarity and details the region of factor X concentration up to 300 nM, and without the curve of 50 nM of DYDYQ (1, 2).

[1] = Clotting time as a function of peptide concentration (FIG. 12); conditions: peptide 500 nM
Excerpt: FIG. 12 is a graph illustrating clotting time as a function of concentration of various peptides of interest as follows: DYDYQ (SEQ ID NO. 11) (filled squares); DYDYQ (1, 2) (or as designated in shorthand form, D5Q1,2) (SEQ ID NO. 9) (filled triangles); DYDYQ-1 (SEQ ID NO. 7) (filled inverted triangles); and DYDYQ-2 (SEQ ID NO. 8) (filled diamonds).

thrombin [2] = biological target: T2, thrombin (Homo sapiens, UniProt P00734); test: Inhibition of activation of factor VIII by thrombin (SDS-PAGE); type: biochemical; design: Factor Xa cleaves prothrombin to form thrombin; conditions: FIG. 9A
Excerpt: Specifically, FIG. 9A illustrates the inhibition of activation of factor VIII by thrombin, the inhibition resulting from the double sulfonated peptide DYDYQ (1, 2) (SEQ ID NO. 9) binding to thrombin. FIG. 9B illustrates the inhibition of activation of factor V by thrombin, the inhibition resulting from the double sulfonated peptide DYDYQ (1, 2) (SEQ ID NO. 9) binding to thrombin. FIGS. 9A and 9B result from analysis by SDS-PAGE as previously described with regard to FIG. 4(A and B). […] The various fragments of each factor are noted on the right hand side of each figure.

thrombin [3] = biological target: T2, thrombin; test: Activation of plasma factor V by thrombin preincubated with peptide (SDS-PAGE, immunoblotting); type: biochemical; design: Factor Xa cleaves prothrombin to form thrombin; purchased Haematologic Technologies Inc. (Essex Junction, Vt.); conditions: FIG. 9B
Description: Gel Electrophoresis and western blotting. Sodium dodecyl sulfate polyacrylamide gel electrophoresis (SDS-PAGE) analyses were performed using 4-12% gradient gels according to the method of Laemmli. In several experiments, proteins were transferred to polyvinylidene difluoride (PVDF) membranes according to the method described by Towbin et al. After transfer to nitrocellulose, factor V heavy and light chain(s) were detected using the appropriate monoclonal and polyclonal antibodies. Immunoreactive fragments were visualized with chemiluminescence.
Factor V (250 nM) was incubated with thrombin (1 nM). And FIG. 4B illustrates thrombin (1 nM) was preincubated with 100 μM peptide DYDYQ and the mixture was added to factor V (250 nM). […] Fragments were identified following staining with monoclonal antibody αHFV#17 that recognizes an epitope between amino acid residues 307-506 of factor V and chemiluminescence as described. Lane 1 in both panels depicts aliquots of the mixture withdrawn from the reaction before the addition of thrombin or thrombin/peptide mixture while lanes 2-7 show aliquots of the reaction mixture withdrawn at 30 sec, 1 min, 3 min, 5 min, 10 min, 15 min following the addition of thrombin alone or of thrombin/peptide mixture. The time of incubation is shown at the bottom of the figure. Position of the molecular weight markers is indicated at left.

Sequence of intrinsic tenase (P00740 227-461 limits assumed): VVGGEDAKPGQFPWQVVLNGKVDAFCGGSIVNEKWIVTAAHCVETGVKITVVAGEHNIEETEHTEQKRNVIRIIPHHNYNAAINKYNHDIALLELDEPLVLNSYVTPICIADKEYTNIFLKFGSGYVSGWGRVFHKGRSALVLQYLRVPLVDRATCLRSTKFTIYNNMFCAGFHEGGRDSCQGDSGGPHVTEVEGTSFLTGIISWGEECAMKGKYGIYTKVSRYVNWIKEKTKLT
Sequence of intrinsic tenase (P00451 1709-2351 limits assumed): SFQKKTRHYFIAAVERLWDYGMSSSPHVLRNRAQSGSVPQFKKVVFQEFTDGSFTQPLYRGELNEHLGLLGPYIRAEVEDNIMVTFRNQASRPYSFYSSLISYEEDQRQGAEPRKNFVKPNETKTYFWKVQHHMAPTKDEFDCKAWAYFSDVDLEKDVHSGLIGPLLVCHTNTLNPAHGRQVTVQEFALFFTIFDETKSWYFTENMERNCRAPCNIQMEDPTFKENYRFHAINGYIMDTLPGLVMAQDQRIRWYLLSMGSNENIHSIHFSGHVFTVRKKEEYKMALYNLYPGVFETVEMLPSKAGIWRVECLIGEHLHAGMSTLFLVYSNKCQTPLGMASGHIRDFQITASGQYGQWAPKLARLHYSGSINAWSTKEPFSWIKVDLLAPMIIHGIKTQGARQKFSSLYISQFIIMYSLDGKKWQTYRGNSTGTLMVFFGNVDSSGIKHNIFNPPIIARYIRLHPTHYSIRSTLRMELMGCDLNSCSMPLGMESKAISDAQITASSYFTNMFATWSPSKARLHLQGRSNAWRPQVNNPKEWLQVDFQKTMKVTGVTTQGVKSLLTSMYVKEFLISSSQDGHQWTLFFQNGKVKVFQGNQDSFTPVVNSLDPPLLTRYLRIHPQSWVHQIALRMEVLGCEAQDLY

- rank of inhibitory effect on prothrombinase among peptides (prothrombinase; FIG. 10A): greatest inhibitory effect
- inhibition of prothrombinase activity with increasing peptide (prothrombinase; FIG. 10A, up to 8000 nM): significant inhibitory effects
- type of inhibition of prothrombinase with respect to prothrombin (prothrombinase; kinetic analyses, increasing prothrombin and peptide): competitive inhibition mechanism
- inhibition of intrinsic tenase (intrinsic tenase): dramatic reduction
- inhibition of activation of factor VIII by thrombin (thrombin [2]): potent inhibitor
- inhibition of activation of factor V by thrombin (thrombin [3]): potent inhibitor
Substance: DY(—SO3)DY(−SO3)Q (DY(SO3)DY(SO3)Q) [DYDYQ-1,2, double sulfonated peptide DYDYQ]
- clotting time [1]: relatively long clotting times
- rank of clotting time among peptides [1]: longest clotting time
